Results published in PMC9758056, “Structural basis for Parkinson’s disease-linked LRRK2’s binding to microtubules” (Nature Structural & Molecular Biology, 2022).
Changes are numbered by the printed parent chain. Numbers in names are those of the source.

B1: LRRK2^RCKW-S2345D (domain or fragment, human)
chain: KKAVPYNRMKLMIVGNTGSGKTTLLQQLMKTKKSDLGMQSATVGIDVKDWPIQIRDKRKRDLVLNVWDFAGREEFYSTHPHFMTQRALYLAVYDLSKGQAEVDAMKPWLFNIKARASSSPVILVGTHLDVSDEKQRKACMSKITKELLNKRGFPAIRDYHFVNATEESDALAKLRKTIINESLNFKIRDQLVVGQLIPDCYVELEKIILSERKNVPIEFPVIDRKRLLQLVRENQLQLDENELPHAVHFLNESGVLLHFQDPALQLSDLYFVEPKWLCKIMAQILTVKVEGCPKHPKGIISRRDVEKFLSKKRKFPKNYMSQYFKLLEKFQIALPIGEEYLLVPSSLSDHRPVIELPHCENSEIIIRLYEMPYFPMGFWSRLINRLLEISPYMLSGRERALRPNRMYWRQGIYLNWSPEAYCLVGSEVLDNHPESFLKITVPSCRKGCILLGQVVDHIDSLMEEWFPGLLEIDICGEGETLLKKWALYSFNDGEEHQKILLDDLMKKAEEGDLLVNPDQPRLTIPISQIAPDLILADLPRNIMLNNDELEFEQAPEFLLGDGSFGSVYRAAYEGEEVAVKIFNKHTSLRLLRQELVVLCHLHHPSLISLLAAGIRPRMLVMELASKGSLDRLLQQDKASLTRTLQHRIALHVADGLRYLHSAMIIYRDLKPHNVLLFTLYPNAAIIAKIADYGIAQYCCRMGIKTSEGTPGFRAPEVARGNVIYNQQADVYSFGLLLYDILTTGGRIVEGLKFPNEFDELEIQGKLPDPVKEYGCAPWPMVEKLIKQCLKENPQERPTSAQVFDILNSAELVCLTRRILLPKNVIVECMVATHHNSRNASIWLGCGHTDRGQLSFLDLNTEGYTSEEVADSRILCLALVHLPVEKESWIVSGTQSGTLLVINTEDGKKRHTLEKMTDSVTCLYCNSFSKQSKQKNFLLVGTADGKLAIFEDKTVKLKGAAPLKILNIGNVSTPLMCLSESTNSTERNVMWGGCGTKIFSFSNDFTIQKLIETRTSQLFDYAAFSDSNIITVVVDTALYIAKQNSPVVEVWDKKTEKLCGLIDCVHFLREVMVKENKESKHKMSYSGRVKTLCLQKNTALWIGTGGGHILLLDLSTRRLIRVIYNFCNSVRVMMTAQLGSLKNVMLVLGYNRKNTEGTQKQKEIQSCLTVWDINLPHEVQNLEKHIEVRKELAEKMRRTSVE
notes: LRRK2, human, carboxy-terminal catalytic half with the ROC, COR, kinase and WD40 domains; also called p.S2345D; WD40 dimerization interface mutant; source: Sf9 insect cells, baculovirus, purified (Ni-NTA, SP Sepharose, TEV cleavage, second Ni-NTA, S200 gel filtration); not shown: His6-Z, N-terminal, cleaved
B2: LRRK2^RCKW-G2019S (domain or fragment, human)
chain: B1 chain with G693S, D1019S
notes: LRRK2, human, carboxy-terminal catalytic half with the ROC, COR, kinase and WD40 domains, with the PD-linked mutation p.G2019S; also called LRRK2^RCKW carrying p.G2019S; source: Sf9 insect cells, baculovirus, purified (Ni-NTA, SP Sepharose, TEV cleavage, second Ni-NTA, S200 gel filtration); not shown: His6-Z, N-terminal, cleaved

Molecular target: the molecule itself
Test: cryo-EM imaging with calculated diffraction patterns (layer lines); tubulin or microtubules with LRRK2^RCKW (WT or mutant), with or without MLi-2; layer lines in diffraction patterns calculated from images of single filaments, 2D class averages

Protein | binding result
B1 | binds
B2 | binds
